Assay results taken from patent publication US20250296996A1 (BROADWING BIO, published 2025).

Assays:
[1] = biological target: T1, P66 (rabbit ANGPTL7-his) (rabbit, UniProt G1T4P1 27-344); assay: BLI Octet HTX; IgG on AHC sensor; P66 at 200 nM; 1:1 fit
T1 construct: mature; also called rabbit ANGPTL7 protein
T1 sequence: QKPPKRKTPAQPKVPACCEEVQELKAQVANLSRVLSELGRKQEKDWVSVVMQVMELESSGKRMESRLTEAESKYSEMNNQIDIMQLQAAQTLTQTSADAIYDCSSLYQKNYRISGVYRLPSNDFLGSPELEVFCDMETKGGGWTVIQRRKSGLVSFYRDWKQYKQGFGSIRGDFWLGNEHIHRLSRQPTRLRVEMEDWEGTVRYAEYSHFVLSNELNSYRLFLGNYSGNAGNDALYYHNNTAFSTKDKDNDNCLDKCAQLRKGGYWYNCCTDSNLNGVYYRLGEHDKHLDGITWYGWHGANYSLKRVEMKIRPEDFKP
Protocol: (§1) Experiments were also conducted to determine the reactivity and dissociation constants (KA) of anti-ANGPTL7 antibodies with the rabbit ANGPTL7 protein. Binding experiments were performed on Octet HTX (ForteBio) in Rx PBS, pH 7.4, 0.1 mg/mi BSA, 0.05% Sodium Azide, and 0.02% Tween 20. Antibodies at a concentration of 50 nM were loaded on pre-hydrated AHC biosensors for 5 min. The loaded sensors were dipped into monovalent P66 (rabbit ANGPTL7-his) at a concentration of 200 nM for 5 min of association, followed by 10 min of dissociation. […] Responses (nm) at the end of association were also determined (Table 6).

[2] = biological target: T2, muANGPTL7-his (R&D Systems) (mouse, UniProt Q8R1Q3 22-337, limits assumed); assay: BLI Octet HTX; IgG on AHC sensor; muANGPTL7-his at 200 nM
T2 construct: Bought protein; also called mouse ANGPTL7 protein
T2 sequence (looked up): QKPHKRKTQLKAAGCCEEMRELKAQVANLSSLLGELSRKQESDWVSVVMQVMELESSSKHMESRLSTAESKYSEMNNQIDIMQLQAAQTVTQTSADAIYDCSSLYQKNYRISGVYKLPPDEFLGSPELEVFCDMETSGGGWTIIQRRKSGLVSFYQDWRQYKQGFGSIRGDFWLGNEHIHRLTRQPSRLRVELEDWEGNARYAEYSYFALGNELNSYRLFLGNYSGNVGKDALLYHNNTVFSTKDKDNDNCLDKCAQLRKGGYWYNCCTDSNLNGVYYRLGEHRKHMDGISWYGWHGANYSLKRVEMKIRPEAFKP
Protocol: as §1, with “(KD)” for “(KA)”, “mouse” for “rabbit”, “1×PBS,” for “Rx PBS,”, “[…].” for “min.”, “muANGPTL7-his (R&D Systems)” for “P66 (rabbit ANGPTL7-his)”, “5).” for “6).”

[3] = biological target: T3, P60 (huANGPTL7-Fibrinogen-his) (human, UniProt O43827 129-343); assay: BLI Octet HTX; IgG on AHC sensor; P60 at 200 nM; 1:1 fit
T3 construct: also called human ANGPTL7 fibrinogen domain; not shown: C-terminal short linker and His tag
T3 sequence: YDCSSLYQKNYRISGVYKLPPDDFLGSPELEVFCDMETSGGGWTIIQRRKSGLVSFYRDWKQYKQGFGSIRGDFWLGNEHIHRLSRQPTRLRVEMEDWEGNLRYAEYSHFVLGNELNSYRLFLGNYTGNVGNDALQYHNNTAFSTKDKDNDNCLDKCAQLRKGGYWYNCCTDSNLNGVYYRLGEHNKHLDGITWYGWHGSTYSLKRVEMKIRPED
Protocol: ANGPTL7 Antibody Kinetics. Experiments were conducted to determine the reactivity and dissociation constants (KD) of anti-ANGPTL7 antibodies with the human fibrinogen domain of the ANGPTL7 protein. Binding experiments were performed on Octet HTX (ForteBio) in 1×PBS, pH 7.4, 0.1 mg/ml BSA, 0.05% Sodium Azide, and 0.02 Tween 20. Antibodies at a concentration of 50 nM were loaded on pre-hydrated AHC biosensors for 5 min. The loaded sensors were dipped into monovalent P60 (huANGPTL7-Fibrinogen-his) at a concentration of 200 nM for 5 min association, followed by 10 min dissociation. […] Responses (nm) at the end of association were also determined (Table 2).

[4] = biological target: T2, muANGPTL7-his (R&D Systems); assay: BLI Octet HTX; IgG on AHC sensor; muANGPTL7-his at 200 nM; 1:1 fit
Protocol: as §1, with “(KD)” for “(KA)”, “mouse” for “rabbit”, “1×PBS,” for “Rx PBS,”, “[…].” for “min.”, “muANGPTL7-his (R&D Systems)” for “P66 (rabbit ANGPTL7-his)”, “5).” for “6).”

[5] = biological target: T4, P62 (huANGPTL7-his) (human, UniProt O43827 27-346); assay: BLI Octet HTX; IgG on AHC sensor; P62 0.343-250 nM; global 1:1 fit (token printed under the kon column)
T4 construct: not shown: C-terminal short linker and His tag
T4 chain: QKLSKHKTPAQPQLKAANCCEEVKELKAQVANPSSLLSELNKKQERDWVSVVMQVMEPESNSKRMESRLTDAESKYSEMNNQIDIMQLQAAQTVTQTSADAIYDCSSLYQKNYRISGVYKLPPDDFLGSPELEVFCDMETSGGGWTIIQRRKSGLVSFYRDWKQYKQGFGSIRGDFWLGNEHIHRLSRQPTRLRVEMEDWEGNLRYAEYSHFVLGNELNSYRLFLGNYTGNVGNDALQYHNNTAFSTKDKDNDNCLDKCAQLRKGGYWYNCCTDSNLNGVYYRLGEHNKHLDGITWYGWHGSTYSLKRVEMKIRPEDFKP
Protocol: Experiments were also conducted to determine the reactivity and dissociation constants (KD) of anti-ANGPTL7 antibodies with the human ANGPTL7-his protein. Binding experiments were performed on Octet HTX (ForteBio) in 1×PBS, pH 7.4, 0.1 mg/mi BSA, 0.05% Sodium Azide, and 0.02% Tween 20. To measure monovalent binding kinetics, antibodies at a concentration of 50 nM were loaded on pre-hydrated AHC biosensors for 5 min. The loaded sensors were dipped into monovalent P62 (huANGPTL7-his) at a range of concentration from 0.343-250 nM (a serial 3-fold dilution) for 5 min association, followed by 10 min dissociation.

B1: ATX-P-437 (antibody, human IgG1, kappa, N297A, V domains shown)
VH: QITLKESGPTLVKPTQTLTLTCTFSGFSLSTSGVGVGWIRQPPGKALEWLALIYWNDDKQYSPSLKSRLTITKDTSKNQVVLTMTNMDPMDTATYYCAHNPDYGDFFDYWGQGTLVTVSS
VL: not shown
notes: Full chains (VH + hIgG1-Agly-Fc)
- Kd [1]: 0.786 nM
- Response [1]: 0.8 nm
- binding result [2]: no binding (tested: 200 nM)
- Kd [3]: 0.658 nM
- Response [3]: 0.6 nm
- Response [4]: 0.02 nm
- binding result [5]: binds
